Data from patent US20060217306A1, “Systemic treatment of infections with defensins” (Novozymes A/S, priority 2005, published 2006).
“And” between values parts separate entries of the source, which are not always exact repeats. Equal entries are not always repeated. No end group written: not given here.

How the values were obtained:
S. pneumoniae strain D39 [1] = test: Treatment of pneumococcal pneumonia, colony counts in lung homogenates; format: in vivo, mice; settings: for Colony counts in lung homogenates: one day after treatment, individual mice
Method: Six to seven mice per sampling point (12 in the no-treatment group) were inoculated with S. pneumoniae (data only shown for strain D39) via the nasopharynx, and 24 hrs later the animals received Plectasin 10 mg/kg or penicillin 30 mg/kg.

[2] = Stability in human serum; residual activity by radial diffusion assay with Staphylococcus carnosus; format: in vitro ADME; settings: 37° C.; for Activity (%) 10% serum / Activity (%) 90% serum: 100 mg/L; for Activity (%) 10% serum: 10% human serum; for Activity (%) 90% serum: 90% human serum
Method: To assess the stability of the defensins in human serum, according to the invention, a solution of 100 mg/L of a defensin in fresh normal human serum is incubated at 37 degrees Celsius for 0, 1, 3, 6 and 24 hours. Residual activity is measured by performing radial diffusion assays with a sensitive indicator organism (e.g., Staphylococcus carnosus or E. coli); by performing a quantification by HPLC, LCMSMS; or by performing various ELISA techniques well known to a person skilled in the art.
To assess serum stability, Plectasin (100 mg/L) was incubated at 37° C. in 10% and 90% fresh normal human serum for 0, 1, 3, 6 & 24 hours. Residual activities were measured by performing radial diffusion assays with Staphylococcus carnosus.

[3] = Single dose intravenous toxicity study in the mouse / maximum tolerable dose; format: in vivo; settings: 125 mg/kg single i.v. dose
Method: The study, to determine the maximum tolerable dose in mice, should be initiated with a sighting study to select the appropriate dose level for the main study. For example, six dose levels could be investigated using one male and one female mouse at each dose level.
On the basis of any signs of toxicity, the selected dose is administered to five male and five female mice as a single intravenous dose in a dose volume of 10 ml/kg. The dose should be administered slowly in the tail vein (e.g., 20 seconds per injection using a 1 ml syringe with a 25G hypodermic needle). All animals should be observed for any signs of toxicity after 15 minutes, 1 hour, 3 hours, 6 hours and 24 hours after administration.
A single intravenous dose was administered slowly in the tail vein (20 seconds per injection) using a 1 ml syringe with a 25G hypodermic needle to 5 male and 5 female mice. […] Body weight was recorded on Day 1, 2, 8 and 15. At termination of the study gross necropsy examination of all animals was carried out.

[4] = Systemic availability: in vivo kinetics, serum concentration by LCMSMS; parameters: species or system NMRI female mice; settings: for Serum concentration: 14 mg/kg single dose, individual mice; for Maximum observed mean concentration / Time of maximum observed mean concentration: serum
Method: The in vivo kinetics of plectasin was investigated in NMRI female mice, 25-30 gram (Harlan Scandinavia Aps), after a single 14 mg/kg dose, administered by either intravenous, subcutaneous or intraperitoneal routes. Plectasin concentrations in serum samples were determined 5, 15, 30, 60, 120 and 180 minutes after dosing, using two mice at each time point. At each time point, urine was collected, then mice were anaesthetized with CO2 and blood collected. The blood samples were centrifuged and serum collected. The concentration of plectasin in serum and urine were determined by LCMSMS.
The maximum observed mean concentrations for i.v., s.c. and i.p. dosing were: 95 mg/L after 5 min., 55 and 34 mg/L after 30 min., respectively.

[5] = tested on: S. pneumoniae strain 68034; test: Treatment of pneumococcal peritoneal infection, colony counts in peritoneal wash, strain 68034; format: in vivo, mice; settings: for Colony counts: strain 68034, peritoneal wash, individual mice
Method: (§1) Three different pneumococcal strains were employed in this study (6A, D39 and 68034). Three mice per sampling point were inoculated with a specific S. pneumoniae i.p., and were treated 1 hour later with a single dose of 10 mg/kg Plectasin. Peritoneal wash was sampled for microbial counts prior to treatment (T=0), and at T=2 and T=5 hrs after. The colony counts are listed below for all three strains.

S. pneumoniae strain D39 [6] = test: Treatment of pneumococcal peritoneal infection, colony counts in peritoneal wash, strain D39; format: in vivo, mice; settings: for Colony counts: strain D39, peritoneal wash, individual mice
Method: as §1

S. pneumoniae strain 6A = test: Treatment of pneumococcal peritoneal infection, colony counts in peritoneal wash, strain 6A; format: in vivo, mice; settings: for Colony counts: peritoneal wash, individual mice
Method: as §1

S. pneumoniae D39 = test: Survival after peritoneal infection with S. pneumoniae D39; format: in vivo; settings: groups of eight mice, vehicle 0/8
Method: as §1
Treatment with Plectasin s.c. 10 mg/kg was initiated one hour after inoculation as described in Example 4A above. The following dosing regimens were investigated in groups of eight mice: vehicle treated, Plectasin once daily (OD) for one day, twice daily (BID) for one day or BID for two days. […] The survival fraction of the vehicle treated control group was 0/8 mice (P<0.0002).

S. pneumoniae 68034 = test: Survival after peritoneal infection with S. pneumoniae 68034; format: in vivo; settings: s.c. 10 mg/kg BID for one or two days, groups of eight mice; vehicle 0/8, P<0.0002
Method: as §1
Treatment with Plectasin s.c. 10 mg/kg was initiated one hour after inoculation as described in Example 4A above. The following dosing regimens were investigated in groups of eight mice: vehicle treatment, Plectasin BID for one or two days. The survival fraction at seven days post-infection was 6/8 for Plectasin treated mice and 0/8 for vehicle treated mice (P<0.0002).

[7] = 2 hours after single dose 10 mg/kg, 10 mg/kg
[8] = 5 hours after single dose 10 mg/kg, 10 mg/kg

penicillin [reference compound]
Colony counts compared to no treatment (S. pneumoniae strain D39 [1]; strain D39, 30 mg/kg): significant reduction | Colony counts in lung homogenates (S. pneumoniae strain D39 [1]; strain D39, 30 mg/kg given 24 hrs after inoculation): 7.5E1 (3×) and 4.5E3 and 2.25E4 and 4.89E5

Plectasin: Defensin shown as amino acids 1 to 40 of SEQ ID NO: 2 in international patent application WO 03/044049; defensin antimicrobial peptide (GFGCNGPWDEDDMQCHNHCKSIKGYKGGYCAKGGFVCKCY; ends and bridges not checked; cysteine pairing not given here; UniProt Q53I06 56-95, looked up)
Activity (%) 10% serum ([2]; 0 hours): 100% | Activity (%) 10% serum ([2]; 1 hour): ˜100% | Activity (%) 10% serum ([2]; 3 hours): ˜100% | Activity (%) 10% serum ([2]; 6 hours): ˜100% | Activity (%) 10% serum ([2]; 24 hours): ˜100% | Activity (%) 90% serum ([2]; 0 hours): 100% | Activity (%) 90% serum ([2]; 1 hour): ˜100% | Activity (%) 90% serum ([2]; 3 hours): ˜100% | Activity (%) 90% serum ([2]; 6 hours): ˜100% | Activity (%) 90% serum ([2]; 24 hours): ˜100% | Residual activity (in words) ([2]; after 24 hours of incubation in 90% human serum): Full activity was retained | Finding at the injection site ([3]; 10 ml/kg, 15 minutes after treatment, 5 male and 5 female mice): all animals had a discoloration at the injection site | Other signs of toxicity ([3]; 10 ml/kg, observed over 14 days): No other signs of toxicity were observed | Gross necropsy ([3]; at termination of the study): no abnormalities | Terminal half-life ([4]; 14 mg/kg, mice, estimated): 49 to 54 min | Serum concentration ([4]; IP, 5 min, 14 mg/kg): 9400 ng/mL and 7200 ng/mL | Serum concentration ([4]; IP, 15 min, 14 mg/kg): 26000 ng/mL and 31600 ng/mL | Serum concentration ([4]; IP, 30 min, 14 mg/kg): 32500 ng/mL and 35400 ng/mL | Serum concentration ([4]; IP, 60 min, 14 mg/kg): 27700 ng/mL and 14300 ng/mL | Serum concentration ([4]; IP, 120 min, 14 mg/kg): 10900 ng/mL and 20300 ng/mL | Serum concentration ([4]; IP, 180 min, 14 mg/kg): 2600 ng/mL and 5600 ng/mL | Serum concentration ([4]; IV, 5 min, 14 mg/kg): 92100 ng/mL and 97900 ng/mL | Serum concentration ([4]; IV, 15 min, 14 mg/kg): 58800 ng/mL and 58100 ng/mL | Serum concentration ([4]; IV, 30 min, 14 mg/kg): 35700 ng/mL and 27300 ng/mL | Serum concentration ([4]; IV, 60 min, 14 mg/kg): 14900 ng/mL and 15600 ng/mL | Serum concentration ([4]; IV, 120 min, 14 mg/kg): 5300 ng/mL and 4900 ng/mL | Serum concentration ([4]; IV, 180 min, 14 mg/kg): 2300 ng/mL and 3500 ng/mL | Serum concentration ([4]; SC, 5 min, 14 mg/kg): 20300 ng/mL and 25400 ng/mL | Serum concentration ([4]; SC, 15 min, 14 mg/kg): 49400 ng/mL and 56600 ng/mL | Serum concentration ([4]; SC, 30 min, 14 mg/kg): 50300 ng/mL and 60000 ng/mL | Serum concentration ([4]; SC, 60 min, 14 mg/kg): 24800 ng/mL and 27200 ng/mL | Serum concentration ([4]; SC, 120 min): 29800 ng/mL | Serum concentration ([4]; SC, 180 min, 14 mg/kg): 4600 ng/mL and 7200 ng/mL | Maximum observed mean concentration ([4]; i.p., 14 mg/kg): 34 mg/L | Time of maximum observed mean concentration ([4]; i.p., 14 mg/kg): 30 min | Concentration-time behavior ([4]; i.v. bolus administration, WinNonlin): two-compartment behavior | Maximum observed mean concentration ([4]; i.v., 14 mg/kg): 95 mg/L | Time of maximum observed mean concentration ([4]; i.v., 14 mg/kg): 5 min | Maximum observed mean concentration ([4]; s.c., 14 mg/kg): 55 mg/L | Time of maximum observed mean concentration ([4]; s.c., 14 mg/kg): 30 min | Colony counts compared to vehicle treated mice ([5]; strain 68034, 10 mg/kg, P<0.0001): significant lower | Colony counts ([5]; 0 hours (prior to treatment)): 3E5 and 5.5E5 and 3.5E5 | Colony counts [5, 7]: 3.25E4 (2×) and 1.5E4 | Colony counts [5, 8]: 4E2 and 1E2 and 7.5E1 | Colony counts compared to vehicle treated mice (S. pneumoniae strain D39 [6]; strain D39, 10 mg/kg, P<0.0001): significant lower | Colony counts (S. pneumoniae strain D39 [6]; 0 hours (prior to treatment)): 3.25E6 and 1.8E6 (2×) | Colony counts (S. pneumoniae strain D39 [6]; [7]): 2.75E4 and 1.1E4 and 2E4 | Colony counts (S. pneumoniae strain D39 [6]; [8]): 2.5E2 and 3.5E2 and 1E2 | Colony counts compared to vehicle treated mice (S. pneumoniae strain 6A; 10 mg/kg, P<0.0001): significant lower | Colony counts (S. pneumoniae strain 6A; 0 hours (prior to treatment)): 1.1E6 and 1.55E6 and 1E6 | Colony counts (S. pneumoniae strain 6A; [7]): 3.5E5 (2×) and 1.78E5 | Colony counts (S. pneumoniae strain 6A; [8]): 2.13E4 and 1.43E3 and 1.45E3 | Survival over the 7-day study period (S. pneumoniae D39; s.c. 10 mg/kg BID for two days): All mice treated with Plectasin survived | Survival over the 7-day study period (S. pneumoniae D39; s.c. 10 mg/kg once daily (OD) for one day): All mice treated with Plectasin survived | Survival over the 7-day study period (S. pneumoniae D39; s.c. 10 mg/kg twice daily (BID) for one day): except for one mouse | Survival fraction at seven days post-infection (S. pneumoniae 68034): 6/8 | Colony counts compared to no treatment (S. pneumoniae strain D39 [1]; strain D39, 10 mg/kg): significant reduction | Colony counts in lung homogenates (S. pneumoniae strain D39 [1]; strain D39, 10 mg/kg given 24 hrs after inoculation): 3E1 (2×) and 5.25E3 and 6.75E2 and 9.75E4 and 2.25E3 and 1.5E2
